According to US20110077204A1, “Agent for Targeted Drug Delivery To Cerebral Neurons” (Kagoshima University, priority 2006, published 2011):

Experiments:
brain neurons [1] = conditions: rat, in vivo
raphe nuclei = conditions: in vivo; cited from earlier work
brain neurons [2] = conditions: rat, in vivo; remark: listed apart in the source
brain parenchyma = conditions: injected directly into the cerebrospinal fluid; cited from earlier work

Molecule: cholera toxin B-subunit [CTB]
- Non-specific infiltration through brain surface or ventricle surface (brain neurons [1]): does not infiltrate indiscriminately through the brain surface or the ventricle surface
- Uptake by cerebellar Purkinje cells (brain neurons [1]): accumulated in the neurons of the raphe nuclei and Purkinje cells
- Uptake by other cell populations (cerebral neocortex, cerebral paleocortex, hypothalamus, thalamus, brainstem) (brain neurons [1]): incorporated
- Uptake by raphe nuclei neurons (brain neurons [1]): accumulated in the neurons of the raphe nuclei and Purkinje cells

Molecule: cholera toxin
- Appearance of label in raphe nuclei (raphe nuclei): the label appeared in the raphe nuclei

Molecule: horseradish peroxidase [HRP]
- Detectable level of uptake of HRP label by neurons (brain neurons [2]): not confirmed

Molecule: N=C(N)c1ccc(/C=C/c2ccc(C(=N)N)cc2O)cc1 [fluorogold]
- Appearance of label in raphe nuclei (raphe nuclei): the label appeared in the raphe nuclei

B1: glial cell line-derived neurotrophic factor (protein, UniProt P39905 78-211, looked up)
Glial cell line-derived …: SPDKQMAVLPRRERNRQAAAANPENSRGKGRRGQRGKNRGCVLTAIHLNVTDLGLGYETKEELIFRYCSGSCDAAETTYDKILKNLSRNRRLVSDKVGQACCRPIAFDDDLSFLDDNLVYHILRKHSAKRCGCI
notes: neurotrophic factor, literature report
- Effect on dopaminergic condition (brain parenchyma): can improve the dopaminergic condition
- Uptake by brain parenchyma (brain parenchyma): incorporated into brain parenchyma
